Series [1] concerns the target T1, KSRP KH4 (human, UniProt Q92945).
T1 sequence: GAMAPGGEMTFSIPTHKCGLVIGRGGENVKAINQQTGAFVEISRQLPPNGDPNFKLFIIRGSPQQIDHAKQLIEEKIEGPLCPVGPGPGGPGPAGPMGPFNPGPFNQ
Briefly: NMR.

Series [2] deals with T2, KSRP KH1 (human, UniProt Q92945).
T2 sequence: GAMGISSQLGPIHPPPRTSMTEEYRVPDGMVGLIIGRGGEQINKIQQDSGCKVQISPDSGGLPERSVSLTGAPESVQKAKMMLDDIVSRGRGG
Briefly: NMR.

For series [3], the target named is T3, KSRP KH3 (human, UniProt Q92945).
T3 sequence: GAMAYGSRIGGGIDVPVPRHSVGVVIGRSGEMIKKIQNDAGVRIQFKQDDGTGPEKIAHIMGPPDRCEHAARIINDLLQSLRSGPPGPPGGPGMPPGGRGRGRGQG
As to the kind of experiment: NMR.

Series [4] has as its target ZBP1 KH34 (Y396F) (UniProt Q9NZI8, Y396F). Briefly: NMR.
Series [5] addresses T4, KSRP KH2 (human, UniProt Q92945).
T4 sequence: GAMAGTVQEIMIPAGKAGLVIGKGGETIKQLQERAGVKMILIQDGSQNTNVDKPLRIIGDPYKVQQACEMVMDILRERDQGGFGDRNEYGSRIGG
Briefly: NMR.

For series [6], the target named is T5, KSRP KH1-4 WT (human, UniProt Q92945).
T5 sequence: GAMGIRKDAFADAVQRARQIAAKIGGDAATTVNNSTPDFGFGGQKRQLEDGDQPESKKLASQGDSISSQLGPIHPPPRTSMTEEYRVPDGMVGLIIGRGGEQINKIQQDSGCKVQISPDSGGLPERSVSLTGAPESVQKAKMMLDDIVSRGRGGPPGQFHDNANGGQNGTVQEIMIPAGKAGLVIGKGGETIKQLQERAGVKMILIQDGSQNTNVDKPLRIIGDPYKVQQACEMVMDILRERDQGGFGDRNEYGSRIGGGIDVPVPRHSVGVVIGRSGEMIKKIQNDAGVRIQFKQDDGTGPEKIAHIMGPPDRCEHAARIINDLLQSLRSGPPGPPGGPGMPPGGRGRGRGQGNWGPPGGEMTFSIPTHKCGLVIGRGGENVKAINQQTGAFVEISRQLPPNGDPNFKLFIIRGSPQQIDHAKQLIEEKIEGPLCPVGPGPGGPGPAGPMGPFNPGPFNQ
As to the kind of experiment: BLI.

For series [7], the target named is T6, KSRP KH1-4, KH2 mutant (human, UniProt Q92945 68-525, K251D;G252D).
T6 sequence: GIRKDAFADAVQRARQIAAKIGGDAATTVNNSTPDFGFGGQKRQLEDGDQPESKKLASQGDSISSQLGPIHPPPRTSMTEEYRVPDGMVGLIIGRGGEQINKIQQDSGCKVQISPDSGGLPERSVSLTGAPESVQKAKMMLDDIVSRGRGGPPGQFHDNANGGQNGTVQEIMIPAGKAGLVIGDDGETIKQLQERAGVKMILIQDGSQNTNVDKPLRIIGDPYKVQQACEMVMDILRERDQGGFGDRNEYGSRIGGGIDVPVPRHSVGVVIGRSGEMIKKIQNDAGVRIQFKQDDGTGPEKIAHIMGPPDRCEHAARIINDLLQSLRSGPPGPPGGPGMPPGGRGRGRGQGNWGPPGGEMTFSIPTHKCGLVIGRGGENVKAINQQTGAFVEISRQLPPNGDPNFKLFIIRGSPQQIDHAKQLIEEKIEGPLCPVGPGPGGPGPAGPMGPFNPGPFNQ
Briefly: BLI.

The target of series [8] is T7, KSRP KH1-4, KH1 mutant (human, UniProt Q92945 68-525, R162D;G163D).
T7 sequence: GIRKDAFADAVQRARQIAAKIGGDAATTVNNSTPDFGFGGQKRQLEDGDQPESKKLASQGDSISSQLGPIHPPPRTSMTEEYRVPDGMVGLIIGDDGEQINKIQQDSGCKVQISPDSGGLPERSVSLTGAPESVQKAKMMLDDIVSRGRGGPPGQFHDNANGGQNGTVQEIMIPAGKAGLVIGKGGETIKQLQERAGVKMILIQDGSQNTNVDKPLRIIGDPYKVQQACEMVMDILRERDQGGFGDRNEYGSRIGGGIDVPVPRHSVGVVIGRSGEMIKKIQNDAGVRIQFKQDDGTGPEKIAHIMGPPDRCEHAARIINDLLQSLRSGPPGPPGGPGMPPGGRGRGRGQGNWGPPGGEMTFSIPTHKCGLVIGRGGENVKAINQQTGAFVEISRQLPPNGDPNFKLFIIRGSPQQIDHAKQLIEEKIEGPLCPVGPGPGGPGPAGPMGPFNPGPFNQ
As to the kind of experiment: BLI.

The target in series [9] is T8, KSRP KH1-4, KH3 mutant (human, UniProt Q92945 68-525, R340D;S341D).
T8 sequence: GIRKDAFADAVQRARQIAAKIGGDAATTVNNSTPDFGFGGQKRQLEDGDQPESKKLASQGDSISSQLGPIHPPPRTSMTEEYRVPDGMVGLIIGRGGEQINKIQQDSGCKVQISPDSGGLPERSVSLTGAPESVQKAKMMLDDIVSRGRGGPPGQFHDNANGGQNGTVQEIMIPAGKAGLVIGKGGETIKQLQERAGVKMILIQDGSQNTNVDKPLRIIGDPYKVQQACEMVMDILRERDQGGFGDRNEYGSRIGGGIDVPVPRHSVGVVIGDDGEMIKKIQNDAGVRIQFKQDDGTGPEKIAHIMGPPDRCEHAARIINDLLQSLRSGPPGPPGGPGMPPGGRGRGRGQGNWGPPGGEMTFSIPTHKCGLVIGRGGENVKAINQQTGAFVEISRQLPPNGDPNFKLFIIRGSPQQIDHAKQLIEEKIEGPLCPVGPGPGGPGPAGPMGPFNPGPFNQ
Briefly: BLI.

Series [10] addresses T9, KSRP KH1-4, KH4 mutant (human, UniProt Q92945 68-525, R442D;G443D).
T9 sequence: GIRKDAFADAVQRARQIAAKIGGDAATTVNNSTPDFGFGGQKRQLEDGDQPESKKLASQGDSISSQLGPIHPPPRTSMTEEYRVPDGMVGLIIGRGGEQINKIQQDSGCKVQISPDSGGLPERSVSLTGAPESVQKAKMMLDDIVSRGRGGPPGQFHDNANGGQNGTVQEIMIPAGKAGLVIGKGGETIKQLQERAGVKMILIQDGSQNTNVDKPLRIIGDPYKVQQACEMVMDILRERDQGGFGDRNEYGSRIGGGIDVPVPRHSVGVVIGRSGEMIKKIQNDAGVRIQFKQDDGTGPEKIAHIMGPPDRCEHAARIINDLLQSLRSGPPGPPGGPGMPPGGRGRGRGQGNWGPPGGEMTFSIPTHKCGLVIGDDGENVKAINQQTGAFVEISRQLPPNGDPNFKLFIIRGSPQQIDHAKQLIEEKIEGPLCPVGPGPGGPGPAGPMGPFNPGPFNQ
Briefly: BLI.

Turning to UAGGG (ssRNA), in series [1], the binding result was “binds”. Regarding UUGGG (ssRNA), the binding result in series [2] was “binds”.

With UGGGU (ssRNA), the binding result in series [3] was “binds”. Take GCACACCC (ssRNA): in [4], the binding result was “binds”. For the molecule UUUAG (ssRNA), the binding result in [5] was “binds”. For GUGUGUUAUUAUUUAUUAUUUAUUUAUUAUUUAUUUAUUCAG (ssRNA) [TNFalpha BLI ARE 42-mer], the Kd in [6] was 3.6 ± 1.4 nM; in [7] it was 43 ± 14 nM; in series [8], 7.3 ± 1.7 nM; in series [9], 95 ± 19 nM; in series [10], 50 ± 16 nM.
